16 molecules from patent US20230220042A1 (SHANGHAI JIAO TONG UNIVERSITY SCHOOL OF MEDICINE, published 2023) can be followed below.

Residue numbers refer to the chain shown, from its start. Numbers in names are those of the source.

The chains are these.
T1: Biotin-FcγRIIB (human, UniProt P31994 43-217, limits assumed, biotin-labelled)
T1 construct: Bought, biotin-labelled; used at 1 µg/ml for staining and sorting; also called human FcγRIIB; CD32b
T1 sequence (looked up): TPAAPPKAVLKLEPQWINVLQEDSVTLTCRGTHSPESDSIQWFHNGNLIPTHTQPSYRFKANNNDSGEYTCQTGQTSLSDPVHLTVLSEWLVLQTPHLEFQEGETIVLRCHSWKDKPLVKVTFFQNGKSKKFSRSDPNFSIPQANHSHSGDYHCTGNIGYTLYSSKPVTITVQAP

B1: anti-human OX40 antibody, human IgG2 Fc mutant Mut_8 (V266L/L328W) (antibody, name in EU numbering)
heavy: QVQLQESGPGLVKPSGTLSLTCAVSGGSISSSIWWSWVRQPPGKGLEWIGEIHHSGNTNCNPSLKSRVTISIDKSKNQFSLKLTSVTAADTAVYYCARAGTGTTLDYWGQGTLVTVSSASTKGPSVFPLAPCSRSTSESTAALGCLVKDYFPEPVTVSWNSGALTSGVHTFPAVLQSSGLYSLSSVVTVPSSNFGTQTYTCNVDHKPSNTKVDKTVERKCCVECPPCPAPPVAGPSVFLFPPKPKDTLMISRTPEVTCVVVDLSHEDPEVQFNWYVDGVEVHNAKTKPREEQFNSTFRVVSVLTVVHQDWLNGKEYKCKVSNKGWPAPIEKTISKTKGQPREPQVYTLPPSREEMTKNQVSLTCLVKGFYPSDIAVEWESNGQPENNYKTTPPMLDSDGSFFLYSKLTVDKSRWQQGNVFSCSVMHEALHNHYTQKSLSLSPGK
light: EIVLTQSPGTLSLSPGERATLSCRASQSVSGDYLAWYQQKLGQAPRLLIYGASIRATGIPDRFSGSGSGTDFTLTISKLEPEDFAVYYCQQYGSSPLTFGGGTKVEIKRTVAAPSVFIFPPSDEQLKSGTASVVCLLNNFYPREAKVQWKVDNALQSGNSQESVTEQDSKDSTYSLSSTLTLSKADYEKHKVYACEVTHQGLSSPVTKSFNRGEC
B2: anti-human OX40 antibody, human IgG2 Fc mutant Mut_2 (H268D/S298L/L328W) (antibody, name in EU numbering)
heavy: B1 heavy with L263V, H265D, S295L
light: B1 light
B3: anti-human OX40 antibody, human IgG2 Fc mutant Mut_19 (V266L/S267E/H268S/E269V/P271C) (antibody, name in EU numbering)
heavy: B1 heavy with S264E, H265S, E266V, P268C, W325L
light: B1 light
B4: anti-human OX40 antibody, human IgG2 Fc mutant Mut_22 (V266L/S267M/H268E/P271Q) (antibody, name in EU numbering)
heavy: B1 heavy with S264M, H265E, P268Q, W325L
light: B1 light
B5: anti-human OX40 antibody, human IgG2 Fc mutant Mut_24 (V266L/S267E/H268S/E269G/P271T) (antibody, name in EU numbering)
heavy: B1 heavy with S264E, H265S, E266G, P268T, W325L
light: B1 light
B6: anti-human OX40 antibody, human IgG2 Fc mutant Mut_23 (V266L/S267E/E269K/P271G) (antibody, name in EU numbering)
heavy: B1 heavy with S264E, E266K, P268G, W325L
light: B1 light
B7: human IgG2 anti-mouse CD40 surface displayed antibody, Fc mutant P331C (antibody, name in EU numbering)
light chain (with the P2A rest): DTVLTQSPALAVSPGERVTISCRASDSVSTLMHWYQQKPGQQPKLLIYLASHLESGVPARFSGSGSGTDFTLTIDPVEADDTATYYCQQSWNDPWTFGGGTKLELKRTVAAPSVFIFPPSDEQLKSGTASVVCLLNNFYPREAKVQWKVDNALQSGNSQESVTEQDSKDSTYSLSSTLTLSKADYEKHKVYACEVTHQGLSSPVTKSFNRGECGSGATNFSLLKQAGDVEENPG
heavy chain: EVQLVESDGGLVQPGRSLKLPCAASGFTFSDYYMAWVRQAPTKGLEWVASISYDGSSTYYRDSVKGRFTISRDNAKSTLYLQMDSLRSEDTATYYCGRHSSYFDYWGQGVMVTVSSASTKGPSVFPLAPCSRSTSESTAALGCLVKDYFPEPVTVSWNSGALTSGVHTFPAVLQSSGLYSLSSVVTVPSSNFGTQTYTCNVDHKPSNTKVDKTVERKCCVECPPCPAPPVAGPSVFLFPPKPKDTLMISRTPEVTCVVVDVSHEDPEVQFNWYVDGVEVHNAKTKPREEQFNSTFRVVSVLTVVHQDWLNGKEYKCKVSNKGLPACIEKTISKTKGQPREPQVYTLPPSREEMTKNQVSLTCLVKGFYPSDIAVEWESNGQPENNYKTTPPMLDSDGSFFLYSKLTVDKSRWQQGNVFSCSVMHEALHNHYTQKSLSLSPGKLEPPPSTVSNMATVAVLVVLGAAIVTGAVVAFVMKMRRRNTGGKGGDYALAPGSQTSDLSLPDCKVMVHDPHSLA
notes: as m1; positions are Eu numbers; copies: 2 + 2
B8: human IgG2 anti-mouse CD40 surface displayed antibody, Fc mutant S267M (antibody, name in EU numbering)
light chain (with the P2A rest): B7 light chain (with the P2A rest)
heavy chain: B7 heavy chain with S262M, C326P
notes: as for B7
B9: human IgG2 anti-mouse CD40 surface displayed antibody, Fc mutant S298N (antibody, name in EU numbering)
light chain (with the P2A rest): B7 light chain (with the P2A rest)
heavy chain: B7 heavy chain with S293N, C326P
notes: as for B7
B10: human IgG2 anti-mouse CD40 surface displayed antibody, Fc mutant P331T (antibody, name in EU numbering)
light chain (with the P2A rest): B7 light chain (with the P2A rest)
heavy chain: B7 heavy chain with C326T
notes: as for B7
B11: human IgG2 anti-mouse CD40 surface displayed antibody, Fc mutant S298K (antibody, name in EU numbering)
light chain (with the P2A rest): B7 light chain (with the P2A rest)
heavy chain: B7 heavy chain with S293K, C326P
notes: as for B7
B12: human IgG2 anti-mouse CD40 surface displayed antibody, Fc mutant S298L (antibody, name in EU numbering)
light chain (with the P2A rest): B7 light chain (with the P2A rest)
heavy chain: B7 heavy chain with S293L, C326P
notes: as for B7
B13: human IgG2 anti-mouse CD40 surface displayed antibody, Fc mutant S298E (antibody, name in EU numbering)
light chain (with the P2A rest): B7 light chain (with the P2A rest)
heavy chain: B7 heavy chain with S293E, C326P
notes: as for B7
B14: human IgG2 anti-mouse CD40 surface displayed antibody, Fc mutant V266A (antibody, name in EU numbering)
light chain (with the P2A rest): B7 light chain (with the P2A rest)
heavy chain: B7 heavy chain with V261A, C326P
notes: as for B7
B15: human IgG2 anti-mouse CD40 surface displayed antibody, Fc mutant S267A (antibody, name in EU numbering)
light chain (with the P2A rest): B7 light chain (with the P2A rest)
heavy chain: B7 heavy chain with S262A, C326P
notes: as for B7

The target in one assay is human OX40 (human) (UniProt P43489). The assay can be described thus: cell-based or functional assay.
human OX40 (human), sequence (P43489 29-277): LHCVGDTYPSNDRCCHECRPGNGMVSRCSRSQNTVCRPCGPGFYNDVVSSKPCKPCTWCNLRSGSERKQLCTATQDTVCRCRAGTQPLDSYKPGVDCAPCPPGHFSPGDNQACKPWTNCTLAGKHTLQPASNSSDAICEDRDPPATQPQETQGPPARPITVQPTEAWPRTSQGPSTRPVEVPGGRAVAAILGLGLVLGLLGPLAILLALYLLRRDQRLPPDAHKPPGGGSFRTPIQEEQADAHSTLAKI
Molecule Ctrl hIgG (antibody) displayed an Average increased factor of the activity over wild-type IgG2 of two experiments of 0.65; an Experiment 1 CFSE fluorescence intensity, 0.01 µg/ml of 1020; an Experiment 1 CFSE fluorescence intensity, 0.1 µg/ml of 1080; an Experiment 1 CFSE fluorescence intensity, 1 µg/ml of 1070. The molecule further returned an Experiment 2 CFSE fluorescence intensity, 0.1 µg/ml of 2730 and an Experiment 2 CFSE fluorescence intensity, 1 µg/ml of 2590.

Regarding B1, the Average increased factor of the activity over wild-type IgG2 of two experiments worked out at 12.3; the Average relative activity of two experiments was found to be 0.54; the Experiment 1 CFSE fluorescence intensity, 0.01 µg/ml turned out to be 844; the Experiment 1 CFSE fluorescence intensity, 0.1 µg/ml amounted to 719. The same molecule registered an Experiment 1 CFSE fluorescence intensity, 1 µg/ml of 799; an Experiment 1 average relative activity of 0.46; an Experiment 1 relative activity, 0.01 µg/ml of 0.36; an Experiment 1 relative activity, 0.1 µg/ml of 0.59. Moreover, the Experiment 1 relative activity, 1 µg/ml turned out to be 0.44; the Experiment 2 CFSE fluorescence intensity, 0.1 µg/ml was determined as 1810; the Experiment 2 CFSE fluorescence intensity, 1 µg/ml was 1440; the Experiment 2 average relative activity was 0.65. The molecule also displayed an Experiment 2 relative activity, 0.1 µg/ml of 0.55 and an Experiment 2 relative activity, 1 µg/ml of 0.75.

The molecule B2 gave an Average increased factor of the activity over wild-type IgG2 of two experiments of 16.5; an Average relative activity of two experiments of 0.72; an Experiment 1 CFSE fluorescence intensity, 0.01 µg/ml of 685; an Experiment 1 CFSE fluorescence intensity, 0.1 µg/ml of 654. The molecule further came in with an Experiment 1 CFSE fluorescence intensity, 1 µg/ml of 677; an Experiment 1 average relative activity of 0.67; an Experiment 1 relative activity, 0.01 µg/ml of 0.65; an Experiment 1 relative activity, 0.1 µg/ml of 0.71. Also, the Experiment 1 relative activity, 1 µg/ml is 0.66; the Experiment 2 CFSE fluorescence intensity, 0.1 µg/ml amounted to 1550; the Experiment 2 CFSE fluorescence intensity, 1 µg/ml is 1150; the Experiment 2 average relative activity was 0.8. The molecule further yielded an Experiment 2 relative activity, 0.1 µg/ml of 0.69 and an Experiment 2 relative activity, 1 µg/ml of 0.9.

Turning to B3, the Average increased factor of the activity over wild-type IgG2 of two experiments was 10.5; the Average relative activity of two experiments came to 0.46; the Experiment 1 CFSE fluorescence intensity, 0.01 µg/ml is 880; the Experiment 1 CFSE fluorescence intensity, 0.1 µg/ml came to 735. Moreover, the Experiment 1 CFSE fluorescence intensity, 1 µg/ml was 824; the Experiment 1 average relative activity is 0.42; the Experiment 1 relative activity, 0.01 µg/ml came out at 0.3; the Experiment 1 relative activity, 0.1 µg/ml came to 0.56. Besides, the Experiment 1 relative activity, 1 µg/ml turned out to be 0.4; the Experiment 2 CFSE fluorescence intensity, 0.1 µg/ml worked out at 2090; the Experiment 2 CFSE fluorescence intensity, 1 µg/ml came to 1670; the Experiment 2 average relative activity came out at 0.52. This molecule also displayed an Experiment 2 relative activity, 0.1 µg/ml of 0.41 and an Experiment 2 relative activity, 1 µg/ml of 0.63.

Molecule B4 showed an Average increased factor of the activity over wild-type IgG2 of two experiments of 9.9; an Average relative activity of two experiments of 0.43; an Experiment 2 CFSE fluorescence intensity, 0.1 µg/ml of 2290; an Experiment 2 CFSE fluorescence intensity, 1 µg/ml of 1790. Besides, the Experiment 2 average relative activity stood at 0.43; the Experiment 2 relative activity, 0.1 µg/ml was 0.3; the Experiment 2 relative activity, 1 µg/ml is 0.56.

In the case of B5, the Average increased factor of the activity over wild-type IgG2 of two experiments worked out at 9.75; the Average relative activity of two experiments worked out at 0.43; the Experiment 1 CFSE fluorescence intensity, 0.01 µg/ml is 912; the Experiment 1 CFSE fluorescence intensity, 0.1 µg/ml amounted to 812. This molecule also yielded an Experiment 1 CFSE fluorescence intensity, 1 µg/ml of 816; an Experiment 1 average relative activity of 0.36; an Experiment 1 relative activity, 0.01 µg/ml of 0.24; an Experiment 1 relative activity, 0.1 µg/ml of 0.42. The molecule further returned an Experiment 1 relative activity, 1 µg/ml of 0.41; an Experiment 2 CFSE fluorescence intensity, 0.1 µg/ml of 2050; an Experiment 2 CFSE fluorescence intensity, 1 µg/ml of 1650; an Experiment 2 average relative activity of 0.53. The molecule also showed an Experiment 2 relative activity, 0.1 µg/ml of 0.43 and an Experiment 2 relative activity, 1 µg/ml of 0.64.

With B6, the Average increased factor of the activity over wild-type IgG2 of two experiments was found to be 9.8; the Average relative activity of two experiments came to 0.43; the Experiment 1 CFSE fluorescence intensity, 0.01 µg/ml was determined as 898; the Experiment 1 CFSE fluorescence intensity, 0.1 µg/ml was found to be 777. Moreover, the Experiment 1 CFSE fluorescence intensity, 1 µg/ml is 843; the Experiment 1 average relative activity was 0.37; the Experiment 1 relative activity, 0.01 µg/ml amounted to 0.26; the Experiment 1 relative activity, 0.1 µg/ml was 0.48. In addition, the Experiment 1 relative activity, 1 µg/ml was found to be 0.36; the Experiment 2 CFSE fluorescence intensity, 0.1 µg/ml worked out at 2160; the Experiment 2 CFSE fluorescence intensity, 1 µg/ml came to 1600; the Experiment 2 average relative activity stood at 0.52. For the same molecule, the Experiment 2 relative activity, 0.1 µg/ml amounted to 0.37 and the Experiment 2 relative activity, 1 µg/ml was 0.67.

For the next assay, the target named is T1, Biotin-FcγRIIB. As to the kind of experiment: FACS sorting of displayed Fc library on biotin-FcγRIIB, NGS.
Take B7: the “Increased factor b Site 2 (point mutation/wild-type)” value was 0.2.

Regarding B8, the “Increased factor b Site 1 (point mutation/wild-type)” value is 2.6.

On to B9, for which the “Increased factor b Site 2 (point mutation/wild-type)” value amounted to 2.3.

On to B10, for which the “Increased factor b Site 2 (point mutation/wild-type)” value is 0.1.

As to B11, the “Increased factor b Site 2 (point mutation/wild-type)” value came out at 4.4.

Consider B12, for which the “Increased factor b Site 2 (point mutation/wild-type)” value amounted to 2.9.

Regarding B13, the “Increased factor b Site 2 (point mutation/wild-type)” value came out at 7.1.

For B14, the “Increased factor b Site 1 (point mutation/wild-type)” value was 3.1.

With B15, the “Increased factor b Site 1 (point mutation/wild-type)” value stood at 5.5.
